Laboratory results: patent publication US20100183625A1 (published 2010)
Residue numbers refer to the chain shown, from its start. Blank lines part the entries; values can stand above or below the binder they belong to.

Experiments:
[1] = biological target: T1, human plasma kallikrein (human, UniProt P03952 20-390; P03952 391-638); assay: ELISA; signal on biotinylated plasma kallikrein divided by signal on streptavidin background
T1 construct: also called pKal; human pKal
From the text: Abbreviations used: “T/B” is the ELISA signal obtained using of the “target” (biotinylated plasma kallikrein) divided by the ELISA signal of the “background” (streptavidin); both of which were coated on microtiter plates. “nd” is not determined. The symbol “q” refers to the amber suppressible stop codon (TAG), which is translated as glutamine (Q) in strains of E. coli such as the TG1 cells that were used to express the Fab fragments.
T1 sequence (P03952 20-390, chain 1 of 2): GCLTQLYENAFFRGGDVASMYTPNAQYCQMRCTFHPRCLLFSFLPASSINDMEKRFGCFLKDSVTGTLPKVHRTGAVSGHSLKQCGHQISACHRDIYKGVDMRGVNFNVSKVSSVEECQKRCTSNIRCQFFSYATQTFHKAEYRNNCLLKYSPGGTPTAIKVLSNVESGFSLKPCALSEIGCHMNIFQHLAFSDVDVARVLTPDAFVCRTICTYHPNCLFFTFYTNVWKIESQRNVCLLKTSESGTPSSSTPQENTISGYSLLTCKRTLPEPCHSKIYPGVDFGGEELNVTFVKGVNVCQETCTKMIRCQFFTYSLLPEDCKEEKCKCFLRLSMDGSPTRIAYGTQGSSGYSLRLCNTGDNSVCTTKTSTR
T1 sequence (P03952 391-638, chain 2 of 2): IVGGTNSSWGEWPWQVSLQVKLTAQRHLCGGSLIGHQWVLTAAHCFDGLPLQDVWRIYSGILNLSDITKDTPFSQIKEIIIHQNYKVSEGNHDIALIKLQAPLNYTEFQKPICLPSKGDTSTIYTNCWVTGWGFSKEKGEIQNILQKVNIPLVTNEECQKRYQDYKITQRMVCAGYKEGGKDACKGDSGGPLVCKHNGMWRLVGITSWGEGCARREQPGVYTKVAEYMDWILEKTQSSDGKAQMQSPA

[2] = biological target: T1, human plasma kallikrein; assay: apparent Ki (Ki,app), inhibition of human pKal activity
[3] = biological target: T2, human plasma kallikrein (human, UniProt P03952 20-390; P03952 391-638); assay: apparent Ki (Ki,app), human pKal
T2 construct: two disulfide linked chains; also called pKal; human pKal
T2 sequence (P03952 20-390, chain 1 of 2): as the sequence (P03952 20-390, chain 1 of 2) above
T2 sequence (P03952 391-638, chain 2 of 2): as the sequence (P03952 391-638, chain 2 of 2) above

[4] = biological target: T3, mouse plasma kallikrein (mouse, UniProt P26262 20-638); assay: apparent Ki (Ki,app), mouse pKal
T3 construct: mature; Source of the mouse enzyme used for Ki,app is not described; also called mouse pKal
T3 sequence (P26262 20-638 limits assumed): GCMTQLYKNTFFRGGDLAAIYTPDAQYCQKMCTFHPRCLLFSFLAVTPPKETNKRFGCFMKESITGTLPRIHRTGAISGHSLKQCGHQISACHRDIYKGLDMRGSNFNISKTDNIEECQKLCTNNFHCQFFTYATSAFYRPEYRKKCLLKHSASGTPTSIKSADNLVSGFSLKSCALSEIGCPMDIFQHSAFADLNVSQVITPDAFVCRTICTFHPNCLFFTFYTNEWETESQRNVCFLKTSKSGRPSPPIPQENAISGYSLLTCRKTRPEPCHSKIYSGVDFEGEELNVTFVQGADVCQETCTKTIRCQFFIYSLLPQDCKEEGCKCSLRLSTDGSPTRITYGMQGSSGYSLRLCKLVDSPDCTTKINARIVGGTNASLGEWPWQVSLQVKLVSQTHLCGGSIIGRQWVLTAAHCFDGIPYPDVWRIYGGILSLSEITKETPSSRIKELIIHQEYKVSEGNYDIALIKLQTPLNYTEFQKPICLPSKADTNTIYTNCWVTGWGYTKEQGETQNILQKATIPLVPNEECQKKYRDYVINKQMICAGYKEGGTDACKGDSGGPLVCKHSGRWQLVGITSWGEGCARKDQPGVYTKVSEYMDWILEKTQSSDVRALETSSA

[5] = biological target: T2, human plasma kallikrein; assay: cell-based or functional assay

- ELISA (T/B) [1]: 4.5 T/B ratio
- Ki [2]: 79 nM
B1: M137-E12 (antibody, V domains shown)
VH: EVQLLESGGGLVQPGGSLRLSCAASGFTFSDYRMQWVRQAPGKGLEWVSVIVPSGGNTMYADSVKGRFTISRDNSKNTLYLQMNSLRAEDTAVYYCARGGPGSSIAARPAPTGYYGMDVWGQGTTVTVSS
VL: QSVLIQPPSVSGIPGQRVTISCSGNNSNFGSNTVTWYQQLPGTAPKLLIYSDSRRPSGVPDRFSGSRSDTSASLAISGLQSEDEAEYHCAAWDDSLNGVFGGGTKLTVL

- ELISA (T/B) [1]: 11.2 T/B ratio
- Ki [2]: < 100 nM
B2: M76-D01 (antibody, V domains shown)
VH: EVQLLESGGGLVQPGGSLRLSCAASGFTFSFYAMHWVRQAPGKGLEWVSGIVPSGGRTHYADSVKSRFTISRDNSKNTLYLQMNSLRAEDTAVYYCATDSSGSPNPLFDYWGQGTLVTVSS
VL: DIVMTQTPPSLPVNPGEPASISCRSSQSLSDDGNTYLDWYLQRPGQSPQLLIHTLSYRASGVPDRFSGSGSGTDFTLKISRVEAEDVGVYYCMQGTHWPPTFGQGTKVEIK

- Ki [3]: 0.7 nM
B3: M29-D09 (antibody, V domains shown)
VH: EVQLLESGGGLVQPGGSLRLSCAASGFTFSWYTMVWVRQAPGKGLEWVSYIYPSGGATFYADSVKGRFTISRDNSKNTLYLQMNSLRAEDTAVYYCAMGSYDYIWGFYSDHWGQGTLVTVSS
VL: QSALTQPPTVSVSPGQTARITCSGNKLGDKYVAWYQQKPGQSPMLVIYQDTKRPSAIPERFSGSNSANTATLSISGTQALDEADYYCQAWDSSIVIFGGGTRLTVL
notes: HC as printed runs into CH1

- Ki [4]: 3.9 nM
- Ki [3]: 5.9 nM
B4: M6-D09 (antibody, V domains shown)
VH: EVQLLESGGGLVQPGGSLRLSCAASGFTFSFYYMVWVRQAPGKGLEWVSVIYPSGGITVYADSVKGRFTISRDNSKNTLYLQMNSLRAEDTAVYYCARDKWAVMPPYYYYAMDVWGQGTTVTVSS
VL: DIQMTQSPSSLSASVSDRVTITCRASQSIRNYLNWYQQKPSKAPNLLIYAASTLQSGVPARFSGSGSGTDFTLTISSLQPEDFATYYCQQLSGYPHTFGQGTKLEIK
notes: HC as printed runs into CH1

- ELISA (T/B) [1]: 28.8 T/B ratio
- Ki [2]: 11 nM
B5: M29-E09 (antibody, V domains shown)
VH: EVQLLESGGGLVQPGGSLRLSCAASGFTFSWYEMGWVRQAPGKGLEWVSSIYSSGGGTMYADSVKGRFTISRDNSKNTLYLQMNSLRAEDTAVYYCARNPQYSGYDRSLSDGAFDIWGQGTMVTVSS
VL: QYELTQPPSVSVSPSQTATITCSGDNLGNKYNSWYQQKPGQSPLLVIYQDTKRPSAIPERFSGSNSGNTAILTISGTQAMDEADYYCQAWDGNVVFGGGTKLTVL

- % inhibition at 10 nM [5]: 90.9%
B6: M207-A04 (Fab, V domains shown)
VH: EVQLLESGGGLVQPGGSLRLSCAASGFTFSHYLMTWVRQAPGKGLEWVSYISPSGGHTIYADSVKGRFTISRDNSKNTLYLQMNSLRAEDTAVYYCARVARGIAARSRTSYFDYWGQGTLVTVSS
VL: DIQMTQSPGTLSLSPGERATLSCRTSQFVNSNYLAWYQQTPGQAPRLLIYGASSRATGIPDRFSGTGYGTDFTLTISRLEPEDYGTYYCQQSSRTPWTFGQGTRVEIK

- % inhibition at 10 nM [5]: 87.3%
B7: M209-B11 (Fab, V domains shown)
VH: B6 VH with F112I, Y114Q
VL: B6 VL

- % inhibition at 10 nM [5]: 76.1%
B8: M209-H07 (Fab, V domains shown)
VH: B6 VH with S107Q, F112Y
VL: B6 VL with S53D, S54D

- % inhibition at 10 nM [5]: 82.6%
B9: M209-H03 (Fab, V domains shown)
VH: B6 VH with G42S, R101Q, S110T, Y111Q
VL: B6 VL

- % inhibition at 10 nM [5]: 85.4%
B10: M209-D12 (Fab, V domains shown)
VH: B6 VH with G42S, R98T, Y114Q
VL: B6 VL

- % inhibition at 10 nM [5]: 74.7%
B11: M209-D02 (Fab, V domains shown)
VH: B6 VH with A104T, Y114D
VL: B6 VL with G42S
